# In the RNAGym collection of RNA variant scans (doi:10.1073/pnas.2313332121):
# This sample holds only a part of the variants without activity.
# B1: TPR 5TU (parent)
# chain: GGAUCUUCUCGAUCUAACAAAAAAGACAAAUCUGCCACAAAGCUUGAGAGCAUCUUCGGAUGCAGAGGCGGCAGCCUUCGGUGGCGCGAUAGCGCCAACGUUCUCAACUAUGACACGCAAAACGCGUGCUCCGUUGAAUGGAGUUUAUCAUG
# Variants of: B1
# Test: polymerase ribozyme fitness, log enrichment relative to wild type (log ratio); higher = more active; in vitro selection for triplet polymerase activity
# In short: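 The heterodimeric triplet polymerase ribozyme's subunits were each mutagenized into PCR-built libraries and transcribed. Every library was selected once, in triplicate, by annealing with a biotinylated primer, the partner subunit and triplets, incubating frozen at −7 °C, gel-excising extended constructs, capturing on streptavidin beads and running RT-PCR. Input and output libraries were Illumina-sequenced, with genotypes kept only at ≥10 input reads and ≥1 read per output. Fitness, from inverse-variance-weighted replicate averages, is the base-2 logarithm of genotype enrichment over wild-type enrichment.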
row,Variant,polymerase ribozyme fitness (log ratio)
1,C85U G128U C131U,-2.93
2,C85U A115U G140A,-3.77
3,C85A G117A,-1.76
4,C85A G117C,-1.3
5,C85G G133U,≤ -4.2
6,C85A U139C U145C,≤ -4.2
7,C85G A142C,-2.98
8,C85G C99U G112U C118U,≤ -4.2
9,C85A U127A,-3.68
10,C85U C125G,-0.638
11,C85U C125U,-0.156
12,C85U A150C G152U,-3.38
13,C85U G124U,-0.801
14,C85A U109G C118U,-1.54
15,C85G G94U,-0.835
16,C85G U144A A150U,-3.7
17,C85U C116U G141A,-2.95
18,C85U C87U,0.308
19,C85G G141A C149G,≤ -4.2
20,C85U A89U A119C,-0.895
21,C85A G94A G128C,-3.21
22,C85U A115G,-2.3
23,C85U A115U,-2.38
24,C85A G152U,-3.5

row,Variant,polymerase ribozyme fitness (log ratio)
1,C85G U109G U144C,≤ -4.2
2,C85G G92C A106C A120U A121G U134A,≤ -4.2
3,C85A C108U U135A U144C,-4.17
4,C85A U144G,-0.777
5,C85A U144A,-0.579
6,C85A U144C,-0.693
7,C85U C99G G136U,-2.88
8,C85U C103U,-2.17
9,C85U C116G,-0.942
10,C85U C116U,-0.233
11,C85U A89G,-2.67
12,C85U C93G A150G,≤ -4.2
13,C85G U135C,-3.66
14,C85G U135A,-3.38
15,C85U A91U C95G G140U,≤ -4.2
16,C85U C129U,-0.359
17,C85A C125A A137G,-2.28
18,C85G C93U C116U U127G,≤ -4.2
19,C85G U135C A138C,≤ -4.2
20,C85U,-0.513
21,C85G,-2.05
22,C85G G94U C118G,-0.928
23,C85U C132U,-0.776
24,C85G C116U,-1.66

row,Variant,polymerase ribozyme fitness (log ratio)
1,C85U C96U A98G A150G,-2.21
2,C85G G86A,-3.83
3,C85G U139C G143A,≤ -4.2
4,C85A G94C A121C,-1.84
5,C85G G124A G133A,≤ -4.2
6,C85A U109G,-1.33
7,C85U G94A G152C,-3.09
8,C85G A121G C132U,-2.88
9,C85G C125A C131A C149U,≤ -4.2
10,C85U C93G,-3.83
11,C85G C95A,-1.68
12,C85U G88A A98U,-3.79
13,C85G A147U,-0.872
14,C85G A147C,-1.67
15,C85U C87G C95G C131A U134G A147U,≤ -4.2
16,C85A U148A,-3.51
17,C85A U148C,-2.22
18,C85A G92U C131G G152C,≤ -4.2
19,C85G C96G,-3.49
20,C85G C96U,-2.26
21,C85G C123G U139A,≤ -4.2
22,C85G C99G,-4.1
23,C85U A91C U102C,≤ -4.2
24,C85U A98G,-0.688

row,Variant,polymerase ribozyme fitness (log ratio)
1,C85G A119U,-3.69
2,C85U A89U G126U U145G,-3.94
3,C85A G88U C95G A97C,≤ -4.2
4,C85U A98C G124C,-1.37
5,C85G C149U,-2.46
6,C85U G100U A121C G124A C125G G136A A142G G152U,≤ -4.2
7,C85U C105U,-0.279
8,C85G A122U C123A,-2.3
9,C85G C99G C116G G136U,≤ -4.2
10,C85U G128A,-3.29
11,C85U G86U C93U U130A A138U,≤ -4.2
12,C85G G141C,-3.06
13,C85U G94C,-0.28
14,C85G A106C G141C,-3.91
15,C85G C125A U130C,-1.52
16,C85G U102G C129U A150C,≤ -4.2
17,C85U A121C,-0.139
18,C85G A98G U144G,-0.337
19,C85A U135G A137U,≤ -4.2
20,C85A U145G,-1.06
21,C85G G126A U146A,-1.79
22,C85G G143U,-3.79
23,C85A G94A,-1.74
24,C85U C105U A106C U135C G141A,-3.94

row,Variant,polymerase ribozyme fitness (log ratio)
1,C85A G92U G117U,-2.26
2,C85U A107U,-3.65
3,C85U C95U,-1.72
4,C85A G124U,-1.9
5,C85A G124C,-1.69
6,C85A C125U,-1.7
7,C85A C125A,-2.27
8,C85U C114G G128A,≤ -4.2
9,C85A G140U,-3
10,C85A G140A,-4.18
11,C85G U144G,-1.75
12,C85U G126U U139A U144C,-3.59
13,C85A G136C,-4.19
14,C85U A97U A115U,-2.7
15,C85G C118U,-3.37
16,C85U G92U C125A G136C,-3.55
17,C85U G136U,-1.83
18,C85A G133U,≤ -4.2
19,C85G C87U U145A,-2.77
20,C85U G136U G152C,≤ -4.2
21,C85U G86C G88A U90G A121U G128A,≤ -4.2
22,C85U C96U,-0.746
23,C85A C149U,-1.59
24,C85U C95G C108U,≤ -4.2

row,Variant,polymerase ribozyme fitness (log ratio)
1,C85G G94A C95G U135A,-3.95
2,C85A C105U,-1.89
3,C85A G126C U148A,-4.13
4,C85U A98U G117A,-0.373
5,C85G C96U C116A A137C,≤ -4.2
6,C85U A89U C105G,-1.55
7,C85U A89U C105U,0.517
8,C85G U90A C114A,≤ -4.2
9,C85A U135A,-0.589
10,C85A U135C,-2.15
11,C85U A122C,-1.06
12,C85A G126A,-1.32
13,C85U A89U A110C A121U G136A U146C,≤ -4.2
14,C85G A106G,-2.59
15,C85G G128C,≤ -4.2
16,C85A U134G,-3.6
17,C85A U134C,-0.169
18,C85A C114U G143A,≤ -4.2
19,C85G C118A U146C,-2.72
20,C85U A121U C132A U134A,-4.16
21,C85G C114U,-3.49
22,C85U C99G G126A U135G,≤ -4.2
23,C85U C87U U144G,0.338
24,C85A G112U,≤ -4.2

row,Variant,polymerase ribozyme fitness (log ratio)
1,C85A C116A,0.744
2,C85G A97G A150U,-2.03
3,C85U C87U C108U C114A,≤ -4.2
4,C85U A142G,-1.38
5,C85U G133U,-2.28
6,C85U G133C,-1.69
7,C85G A122C,-1.98
8,C85U A89G A106G G117A G126C G143C,≤ -4.2
9,C85A G92C G141A G143U,≤ -4.2
10,C85U A98C G117C,0.631
11,C85U C125G G136A,-0.203
12,C85G C93G,-3.68
13,C85G G92U G136A G141A,-3.06
14,C85A C129G,-2.95
15,C85U C95U G133A,-4
16,C85A C118A,-0.973
17,C85A G112U A113C U148G,≤ -4.2
18,C85A G117A A138G,-4.18
19,C85U G117A,0.212
20,C85U G117U,0.675
21,C85A C123U,-1.2
22,C85G C125U,-3.35
23,C85G C116U U144C,-3.36
